Tests used:
purified protein = substrate: CC(O)C(C)O; assay: purified protein; settings: oxidation, co-substrate NAD+ (standard assay 1.2 mM NAD+, pH 8.5, 25°C preincubation), stereoisomer not told, printed kcat/Km does not fit kcat and Km
[1] = substrate: NC(=O)c1ccc[n+]([C@@H]2O[C@H](COP(=O)(O)OP(=O)(O)OC[C@H]3O[C@@H](n4cnc5c(N)ncnc54)[C@H](O)[C@@H]3O)[C@@H](O)[C@H]2O)c1; assay: NAD+ reduction assay, Lineweaver-Burk plot; format: biochemical, Bacillus subtilis; settings: oxidation, co-substrate 2,3-butanediol (standard assay 10 mM, pH 8.5), printed kcat/Km does not fit kcat and Km, varied: cofactor
[2] = substrate: CC(=O)C(C)O; assay: NADH oxidation assay, Lineweaver-Burk plot; format: biochemical, Bacillus subtilis; settings: reduction, co-substrate NADH (standard assay 0.2 mM NADH, PBS pH 6.5, 25°C preincubation), stereoisomer not told, 25.0 °C
[3] = substrate: NC(=O)C1=CN([C@@H]2O[C@H](COP(=O)(O)OP(=O)(O)OC[C@H]3O[C@@H](n4cnc5c(N)ncnc54)[C@H](O)[C@@H]3O)[C@@H](O)[C@H]2O)C=CC1; assay: NADH oxidation assay, Lineweaver-Burk plot; format: biochemical, Bacillus subtilis; settings: reduction, co-substrate acetoin (standard assay 10 mM, pH 6.5), printed kcat/Km does not fit kcat and Km, varied: cofactor

B1: AR/BDH (acetoin reductase/2,3-butanediol dehydrogenase) (Bacillus subtilis subsp. subtilis str. 168) (protein)
chain: MKAARWHNQKDIRIEHIEEPKTEPGKVKIKVKWCGICGSDLHEYLGGPIFIPVDKPHPLTNETAPVTMGHEFSGEVVEVGEGVENYKVGDRVVVEPIFATHGHQGAYNLDEQMGFLGLAGGGGGFSEYVSVDEELLFKLPDELSYEQGALVEPSAVALYAVRSSKLKAGDKAAVFGCGPIGLLVIEALKAAGATDIYAVELSPERQQKAEELGAIIVDPSKTDDVVAEIAERTGGGVDVAFEVTGVPVVLRQAIQSTTIAGETVIVSIWEKGAEIHPNDIVIKERTVKGIIGYRDIFPAVLSLMKEGYFSADKLVTKKIVLDDLIEEGFGALIKEKSQVKILVRPN
notes: full length, C-terminal His6 tag (from primer, not reported cut); pMA5-bdhA expressed in B. subtilis JNA 3-10; Ni-NTA and Superdex 200; subunit 38-39 kDa by SDS-PAGE
Question: For B1, which Km (purified protein) is on record?
Answer: The Km was 260 ± 9 µM.

Question: What about the Vmax (purified protein) of the same protein?
Answer: Its Vmax is 2.34 µM/min.

Question: What about the kcat (purified protein) of the same protein?
Answer: The kcat was 0.00233 s⁻¹.

Question: And the Km [1]?
Answer: The Km was 80 ± 2 µM.

Question: And the Vmax [1]?
Answer: Its Vmax is 14 µM/min.

Question: And the kcat [1]?
Answer: Its kcat is 0.0232 ± 0.000267 s⁻¹.

Question: And the Km [2]?
Answer: The Km was 160 ± 5 µM.

Question: And the Vmax [2]?
Answer: The Vmax was 5.54 µM/min.

Question: What about the kcat [2] of the same protein?
Answer: Its kcat is 0.00567 ± 0.0002 s⁻¹.

Question: What about the kcat/Km [2] of the same protein?
Answer: Its kcat/Km is 35.5 M⁻¹ s⁻¹.

Question: And the Km [3]?
Answer: Its Km is 40 ± 1 µM.

Question: What about the Vmax [3] of the same protein?
Answer: Its Vmax is 14.2 µM/min.

Question: And the kcat [3]?
Answer: Its kcat is 0.0235 ± 0.00035 s⁻¹.

Source: paper PMC3946754, “Two-Stage pH Control Strategy Based on the pH Preference of Acetoin Reductase Regulates Acetoin and 2,3-Butanediol Distribution in Bacillus subtilis” (PLoS ONE, 2014)
